We go through 1 molecule from patent US7230085B2, “Anti-DOTA antibody” (Immunomedics, Inc., priority 2001, dated 2007).

Series [1] in a line: Isoelectric focusing of purified LG1. The series is classed as physicochemical. The method, then: LG1 cells are expanded and adapted to grow in H-SFM media in serum-free conditions. The antibody LG1 is isolated from the culture media by affinity chromatography on Protein G Sepharose with a yield of ^˜50 mg of IgG per liter of culture media. The purified antibody is analyzed by SDS polyacrylamide electrophoresis, isoelectric focusing, and its isotype is determined by ELISA with a commercially available kit (Southern Biotechnology, Birmingham, Ala.).

Another series concerns hLL2-DOTA-yttrium. Kind of series: Qualitative binding on size-exclusion HPLC. The settings on record: SE-HPLC. The source says:
(§1) The msAb, LG1×hMN-14 (Fab′×Fab) is shown by the same analysis to bind to hLL2-DOTA-yttrium.

The subject of series [2] is hLL2. Briefly: Qualitative binding on size-exclusion HPLC. The settings on record: SE-HPLC.
Description: as §1
A general note: SEC sorts molecules by how far they enter the pores of the column.

The test system of a further series is hLL2-DOTA. Briefly: Qualitative binding on size-exclusion HPLC. The settings on record: SE-HPLC.
Description: as §1

For a further series, the system named is indium-DOTA alone. Kind of series: LG1 binding to indium-DOTA alone. The source says:
(§2) To determine the essential features that are important to elicit LG1 binding, labeled DOTA (indium-111) was linked to a hapten, via lysine residues, on either the alpha (DOTA-Lys(HSG)-D-Tyr-Lys(HSG)-NH2) or epsilon (biotin-D-Phe-D-Lys[DOTA]) positions of one of the DOTA carboxy groups. LG1 did bind the epsilon-linked indium-DOTA, but not the alpha-linked indium DOTA. […] Thus, the antibody of the current invention is “universal” in that it may bind to any DOTA-metal complex with a pendant N-alkylacetamide group, regardless of the type of metal with which DOTA is complexed. As used herein, the phrases “universal anti-DOTA antibody” or “universally binds” are used to mean an antibody that binds to any DOTA or DOTA-metal complex with a pendant N-alkylacetamide group.

Series [3] concerns metal complexes of DOTA-hLL2. Briefly: ELISA binding of LG1 to DOTA-hLL2 metal complexes. The method, then:
Immunocompetent mice were immunized mice with the macrocyclic chelate DOTA, previously coupled to a humanized immunoglobulin (hIgG). A number of mice were injected and the harvested splenocytes fused with the mouse myeloma cell line SP2/0, according to a standard technique. A total of 1800 clones were screened by ELISA for reactivity with DOTA-conjugated hIgG and hIgG alone. Initially, 25 clones were identified as secreting an IgG that bound to the IgG-DOTA conjugate, but not to the IgG. After being sub-cloned three times, only one hybrid, termed LG1, remained positive and this was adapted to grow in serum-free media. […] LG1 was purified from culture supernatant with a yield of ^˜50 mg/liter of media. […] These metals include gadolinium, gallium, indium, lead, lutetium and yttrium. Additionally, LG1 has a high affinity for a variety of DOTA compounds, showing strong reactivity starting at concentrations of ^˜1 ng/mL (^˜10^−9M), compared to previously produced anti-DOTA antibodies that had affinities measured in microgram amounts.
(§3) LG1 is tested by ELISA for binding to hLL2 and a panel of different metal complexes of DOTA-hLL2. The capture proteins are diluted to 10 μg/ml, and dilutions of LG1 are assayed. Binding is shown using a peroxidase-conjugated goat anti-mouse IgG Fc specific antibody.
Background: An ELISA detects its analyte on a solid surface through an enzyme-linked reagent.

Series [4] deals with hLL2. Briefly: ELISA binding of LG1 to hLL2. On the procedure: as §3
The test system of a further series is hMN-14-DOTA-yttrium-90. Briefly: Qualitative binding on size-exclusion HPLC. The settings on record: SE-HPLC.
Series [5] has as its system biotin-D-Phe-D-Lys(DOTA-indium-111). Briefly: Qualitative binding on size-exclusion HPLC. The settings on record: epsilon-linked indium-DOTA.
Description: as §2, §1

Series [6] concerns indium-111-DOTA-Phe-Lys(HSG)-D-Tyr-Lys(HSG)-NH2. Kind of series: Qualitative binding on size-exclusion HPLC.
Description: as §2, §1

In the next series the test system is BSA-DOTA-Yttrium. Briefly: Inhibition of LG1 binding to BSA-DOTA-Yttrium by hLL2-DOTA metal complexes (ELISA). The settings on record: LG1 0.1 μg/ml; inhibitors 10 to 0.0001 μg/ml. The method, then: The binding of LG1 to BSA-DOTA-Yttrium is also tested in the presence of a panel of hLL2-DOTA metal complexes by incubating LG1 at concentration 0.1 μg/ml with hLL2 and the DOTA-hLL2 conjugates, at concentration 10 to 0.0001 μg/ml, and then adding to ELISA plates coated with BSA-DOTA-Yttrium.

Several values for one entry are separate records, joined by “and”; a condition that tells them apart may be missing. Equal entries are not always repeated. Entries after “also recorded” stand apart in the source; their conditions may differ.

B1: LG1: murine monoclonal anti-DOTA antibody, IgG2b with a lambda light chain (antibody, V domains shown)
VH: EVMLVESGGGLVKPGGSLTLSCAASGFTFTAHAMSWVRQTPEKRLEWVATISGGGTYTYFPDSFQGRFTISSDNAKNTLYLQMSSLRSEDTSMYFCTRHGDYRYAFGYWGQGTLVTVSA
VL: VVTQESALTTSPGETVTLTCRSSSGAVTTNNYANWVQEKPDHLFTGLIGGTNNRAPGVPARFSGSLIGDKAALTITGAQTEDEAIYFCALWFSDHWVFGGGTELTVLG
Take B1: the PI in series [1] is recorded as 5.85-6.85. For the same molecule, in the series with hLL2-DOTA-yttrium, the “binding to hLL2-DOTA-yttrium” value is reported as “positive binding”. In addition, the “binding to hLL2 itself” value in the series with hLL2 [2] is listed as “no binding”. The “binding to hLL2-DOTA” value in the series with hLL2-DOTA is recorded as “positive binding”. Besides, the “binding to indium-DOTA alone” value with indium-DOTA alone is “did not bind”. Also, in series [3] (ELISA, gadolinium, gallium, indium, lead, lutetium, yttrium and no metal), the “binding to DOTA-hLL2 and its metal complexes” value is given as “Equivalent binding; also recorded: Identical binding; also recorded: bind equally; also recorded: bind equivalently well; also recorded: binds to gadolinium-DOTA complexes as well as it binds to the yttrium-DOTA complexes”. Moreover, the “concentration at which strong reactivity starts” value in [3] (ELISA, variety of DOTA compounds) is ~1 ng/mL and ~10^−9 M. Further, in series [3] (estimated by ELISA method to determine ligand binding affinity, read-out: affinity towards many different metal-DOTA complexes), the Kd was 0.001 to 0.1 nM. Moreover, the “binding to hLL2” value in the series on hLL2 [4] is “no binding”. The “binding to hMN-14-DOTA-yttrium-90” value in the series with hMN-14-DOTA-yttrium-90 is “positive binding”. Moreover, the “binding to biotin-D-Phe-D-Lys(DOTA-indium-111)” value in series [5] is on record as “positive binding; also recorded: did bind”. For the same molecule, the “binding to alpha-amino-linked indium-111-DOTA peptide” value in series [6] was “no binding and not”. The “specificity in inhibition assay” value in the series on BSA-DOTA-Yttrium is given as “anti-DOTA specific, independent of the metal being bound in the chelate ring”.
